The experiment can be described thus: Perhydrolysis of triacetin with hydrogen peroxide; peracetic acid measured by HPLC method of Karst et al. The experiment is classed as biochemical. Conditions: Table 14: triacetin 250 mM, H2O2 1.0 M, pH 6.5, 25° C., 50 μg/mL of commercial lipase. The protocol: Determination of the concentration of peracetic acid in the reaction mixture was performed according to the method described by Karst et al. Aliquots (0.250 mL) of the reaction mixture were removed at 10 min and 30 min and filtered using an Ultrafree® MC-filter unit (30,000 Normal Molecular Weight Limit (NMWL), Millipore cat #UFC3LKT 00) by centrifugation for 2 min at 12,000 rpm; removal of the protein component of the aliquot by filtration terminated the reaction. An aliquot (0.100 mL) of the resulting filtrate was transferred to 1.5-mL screw cap HPLC vial (Agilent Technologies, Palo Alto, Calif.; #5182-0715) containing 0.300 mL of deionized water, then 0.100 mL of 20 mM MTS (methyl-p-tolyl-sulfide) in acetonitrile was added, the vials capped, and the contents briefly mixed prior to a 10 min incubation at ca. 25° C. in the absence of light. To each vial was then added 0.400 mL of acetonitrile and 0.100 mL of a solution of triphenylphosphine (TPP, 40 mM) in acetonitrile, the vials re-capped, and the resulting solution mixed and incubated at ca. 25° C. for 30 min in the absence of light. To each vial was then added 0.100 mL of 10 mM N,N-diethyl-m-toluamide (DEET; HPLC external standard) and the resulting solution analyzed by HPLC as described below.
Supelco Discovery C8 column (10-cm×4.0-mm, 5 μm) (cat. #569422-U) w/precolumn Supelco Supelguard Discovery C8 (Sigma-Aldrich; cat #59590-U); 10 microliter injection volume; gradient method with CH3CN (Sigma-Aldrich; #270717) and deionized H2O at 1.0 mL/min and ambient temperature: […]
An extract of E. coli UM2/pSW186 transformant (20 mg total protein/mL extract, prepared as described in Example 21) was employed in 1.0 mL perhydrolysis reactions (run as described in Example 21) containing triacetin (40 mM or 100 mM), hydrogen peroxide (40 mM or 100 mM) and extract total protein (0.1 mg/mL or 1.0 mg/mL) in phosphate buffer (Pi, 100 mM, 200 mM or 300 mM) at pH 6.5 or 7.5 at 25° C. each reaction (Table 11).
Separate 1.0 mL reactions containing triacetin (250 mM), hydrogen peroxide (1.0 M) and 50 μg of extract total protein in 50 mM phosphate buffer (pH 6.5) were run at 25° C. with each transformant extract. […] The concentration of peracetic acid in the reaction mixtures (Table 12) was determined according to the method of Karst et al. as described in Example 2.
Separate 1-mL reactions containing triacetin (250 mM), hydrogen peroxide (1.0 M) and 50 μg of extract total protein from a cell extract (prepared as described above) in 50 mM phosphate buffer (pH 6.5) were run at 25° C. […] The concentration of peracetic acid in the reaction mixtures (Table 13) was determined according to the method of Karst et al. described in Example 2. […]

B1: Novozymes Lipolase 100 L type EX: commercial lipase, source Thermomyces lanuginosus (Novozymes) (protein, UniProt O59952 23-291, looked up)
Lipase: EVSQDLFNQFNLFAQYSAAAYCGKNNDAPAGTNITCTGNACPEVEKADATFLYSFEDSGVGDVTGFLALDNTNKLIVLSFRGSRSIENWIGNLNFDLKEINDICSGCRGHDGFTSSWRSVADTLRQKVEDAVREHPDYRVVFTGHSLGGALATVAGADLRGNGYDIDVFSYGAPRVGNRAFAEFLTVQTGGTLYRITHTNDIVPRLPPREFGYSHSSPEYWIKSGTLVPVTRNDIVKIEGIDATGGNNQPNIPDIPAHLWYFGLIGTCL
Take B1: the “PAA (ppm); 5 min” value is on record as 10 ppm and the “PAA (ppm); 30 min” value is 0 ppm.

B2: Novozymes Lipozyme TL 100 L: commercial lipase, source Thermomyces lanuginosus (Novozymes) (protein, UniProt O59952 23-291, looked up)
Lipase: EVSQDLFNQFNLFAQYSAAAYCGKNNDAPAGTNITCTGNACPEVEKADATFLYSFEDSGVGDVTGFLALDNTNKLIVLSFRGSRSIENWIGNLNFDLKEINDICSGCRGHDGFTSSWRSVADTLRQKVEDAVREHPDYRVVFTGHSLGGALATVAGADLRGNGYDIDVFSYGAPRVGNRAFAEFLTVQTGGTLYRITHTNDIVPRLPPREFGYSHSSPEYWIKSGTLVPVTRNDIVKIEGIDATGGNNQPNIPDIPAHLWYFGLIGTCL
As for B2, the “PAA (ppm); 5 min” value is 125 ppm and the “PAA (ppm); 30 min” value worked out at 370 ppm.

The record behind these values is patent US8178581B2, “Production of peracids using an enzyme having perhydrolysis activity” (E. I. du Pont de Nemours and Company, priority 2005, dated 2012).
